Measurements reported in the supplement of paper PMC12783771.
± gives the standard deviation of the averaged measurements.

B1: library; a variant is named by its letters at X, in order (parent)
chain: MNIQIGELAKRTACPVVTIRFYEQEGLLPPPGRSRGNFRLYGEEHVERLQFIRHCRSLDMPLSXVRTLLSYRKRPDQDCGEVXMLLDEHXRQVESRIGALLELXHXLVELREACSGARPAQSCGILQGLSDCVCDTRGTTAHXSD

What was measured:
[1] = variants of: B1; test: sfGFP reporter fluorescence (15 h) (µM FITC); higher = higher leak; details: library round: Round 3b; ligand: none
Experimental: (§1)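 Cell-free biosensing: 1 µL Echo-assembled CFE reactions with linear PbrR variant templates (5 nM) and pPbrR-sfGFP reporter, with 1 µM Pb, 30 µM Zn or no ligand; endpoint sfGFP fluorescence after 15 h at 30 °C calibrated as µM FITC. Round 3b rational combinatorial PbrR mutants; 3 biological replicates.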

[2] = variants of: B1; test: sfGFP reporter fluorescence (15 h) (µM FITC); higher = stronger transcriptional activation; details: library round: Round 3b
Experimental: as §1

Variant	sfGFP reporter fluorescence [1]	sfGFP reporter fluorescence ([2]; ligand: 1 µM Pb)	sfGFP reporter fluorescence ([2]; ligand: 30 µM Zn)
KIATAR	0.069 ± 0.0014	1.49 ± 0.15	0.0681 ± 0.0007
KIATAT	0.0691 ± 0.0019	1.29 ± 0.062	0.0697 ± 0.0016
DIATAT	0.0409 ± 0.0016	0.112 ± 0.0062	0.0458 ± 0.00085
DIATEP	0.046 ± 0.0012	0.0616 ± 0.0042	0.0456 ± 0.0029
KIATEP	0.0672 ± 0.0044	1 ± 0.062	0.0643 ± 0.0007
DIATER	0.0429 ± 0.0012	0.0627 ± 0.0026	0.0413 ± 0.00067
KIATER	0.06373 ± 0.00019	1.25 ± 0.078	0.0603 ± 0.0035
DIATET	0.0419 ± 0.0022	0.0628 ± 0.00089	0.0452 ± 0.0012
KIATET	0.0659 ± 0.0015	1.15 ± 0.065	0.0663 ± 0.0026
KIATHP	0.07594 ± 0.00067	1.34 ± 0.049	0.0972 ± 0.014
DIATHR	0.0464 ± 0.003	0.0989 ± 0.0066	0.0456 ± 0.0036
KIATHR	0.0655 ± 0.0015	1.19 ± 0.2	0.0963 ± 0.013
DIATHT	0.0414 ± 0.0019	0.103 ± 0.0068	0.0451 ± 0.0014
KIATHT	0.0743 ± 0.0012	1.3 ± 0.031	0.112 ± 0.0078
DIAVAP	0.0451 ± 0.0067	0.0922 ± 0.0043	0.0441 ± 0.0071
KIAVAP	0.0556 ± 0.001	0.772 ± 0.15	0.0487 ± 0.0065
DIAVAR	0.0429 ± 0.0036	0.102 ± 0.0042	0.047 ± 0.0015
KIAVAR	0.0586 ± 0.0045	1.08 ± 0.06	0.0523 ± 0.0046
DIAVAT	0.0441 ± 0.0047	0.096 ± 0.0083	0.0457 ± 0.0025
KIAVAT	0.0607 ± 0.0022	1.25 ± 0.024	0.0576 ± 0.0032
DIAVEP	0.0409 ± 0.0007	0.0827 ± 0.0059	0.04514 ± 0.00039
KIAVEP	0.0654 ± 0.0022	0.997 ± 0.055	0.0578 ± 0.0022

Variant	sfGFP reporter fluorescence [1]	sfGFP reporter fluorescence ([2]; ligand: 1 µM Pb)	sfGFP reporter fluorescence ([2]; ligand: 30 µM Zn)
DIAVER	0.0436 ± 0.004	0.0866 ± 0.0039	0.0484 ± 0.0041
KIAVER	0.0626 ± 0.0036	0.946 ± 0.087	0.0548 ± 0.002
DIAVET	0.0432 ± 0.0019	0.07 ± 0.0044	0.0437 ± 0.002
KIAVET	0.0672 ± 0.0059	1.21 ± 0.013	0.0607 ± 0.0027
KIAVHP	0.0656 ± 0.0055	1.12 ± 0.13	0.0894 ± 0.011
DIAVHR	0.0454 ± 0.0066	0.104 ± 0.0012	0.0493 ± 0.0043
KIAVHR	0.0703 ± 0.001	1.42 ± 0.17	0.0998 ± 0.0092
DIAVHT	0.0457 ± 0.0036	0.102 ± 0.0083	0.0483 ± 0.0036
KIAVHT	0.0616 ± 0.0046	0.924 ± 0.066	0.0797 ± 0.0069
KIIKAT	0.0413 ± 0.0042	0.17 ± 0.027	0.0483 ± 0.0033
KIIKER	0.0441 ± 0.0037	0.149 ± 0.017	0.0485 ± 0.0035
KIIKET	0.0423 ± 0.0019	0.128 ± 0.0066	0.0466 ± 0.001
KIITAP	0.0473 ± 0.0044	0.308 ± 0.022	0.051 ± 0.005
DIITAR	0.0463 ± 0.0055	0.0691 ± 0.0046	0.0465 ± 0.0022
DIITAT	0.0431 ± 0.0041	0.0634 ± 0.005	0.0426 ± 0.0034
KIITAT	0.0466 ± 0.0011	0.39 ± 0.032	0.05466 ± 0.00019
KIITEP	0.0456 ± 0.0027	0.301 ± 0.011	0.0508 ± 0.0019
DIITER	0.0474 ± 0.0038	0.0576 ± 0.0022	0.0446 ± 0.0022
KIITER	0.0454 ± 0.0026	0.266 ± 0.0032	0.0497 ± 0.0018
DIITET	0.0436 ± 0.0034	0.0535 ± 0.002	0.047 ± 0.0035
KIITET	0.0468 ± 0.0019	0.265 ± 0.01	0.0513 ± 0.0034
KIITHR	0.0506 ± 0.0028	0.485 ± 0.067	0.0734 ± 0.0022
